Measured values: US20130143798A1 (Novo Nordisk, published 2013)
Numbered stars: 1 amine (or outer) side, 2 acyl side, 3 side chain; on linkers, the order of the positions; unused ones are H or OH. Square brackets hold non-standard residues; d marks the D form. Side chains are listed from the residue outwards. Ends that are not written are not given here. * marks the point of attachment. C18 diacid = O=C(O)CCCCCCCCCCCCCCCCC(=O)*; pY = N[C@@H](Cc1ccc(OP(=O)(O)O)cc1)C(=O)O; γGlu = O=C(O)[C@H](CCC(=O)[*:2])N[*:1]; AEEA = NCCOCCOCC(=O)O

Target: T1, glucagon receptor (UniProt P47871 26-477, limits assumed)
Assay: cell-based or functional assay

T1 sequence (P47871 26-477 limits assumed): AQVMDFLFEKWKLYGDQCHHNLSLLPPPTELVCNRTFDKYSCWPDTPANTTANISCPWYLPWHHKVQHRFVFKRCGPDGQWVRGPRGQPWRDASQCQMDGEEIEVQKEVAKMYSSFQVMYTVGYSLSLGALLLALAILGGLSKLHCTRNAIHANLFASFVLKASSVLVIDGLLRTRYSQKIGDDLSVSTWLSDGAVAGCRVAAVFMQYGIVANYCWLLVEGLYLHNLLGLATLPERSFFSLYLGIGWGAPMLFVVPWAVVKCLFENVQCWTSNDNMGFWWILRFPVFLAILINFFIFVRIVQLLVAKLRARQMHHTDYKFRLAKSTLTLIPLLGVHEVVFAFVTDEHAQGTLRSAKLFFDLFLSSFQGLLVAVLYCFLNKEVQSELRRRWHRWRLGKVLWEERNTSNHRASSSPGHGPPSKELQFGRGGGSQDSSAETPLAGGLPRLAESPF

Row | Binder | Assay (I) Glucagon [EC50]
1 | HSQGTFTSDYSKYLDSRQAQEFVK([AEEA-AEEA-γGlu-C18 diacid])WLLNT | 0.15 nM
2 | HSQGTFTSDYSKYLDSRRAQDFVK([AEEA-AEEA-γGlu-C18 diacid])HLLNT | 0.194 nM
3 | HSQGTFTSDYSKYLDSRRAQDFVQK([AEEA-AEEA-γGlu-C18 diacid])LLNT | 0.155 nM
4 | HSQGTFTSDYSKYLDSKRAQEFVK([AEEA-AEEA-γGlu-C18 diacid])WLLNT | 0.022 nM
5 | HSQGTFTSDYSKYLDSKKAQEFVK([AEEA-AEEA-γGlu-C18 diacid])WLLST | 0.009 nM
6 | HSQGTFTSDYSKYLDSRRAQEFVK([AEEA-AEEA-γGlu-C18 diacid])RLLNT | 0.074 nM
7 | HSQGTFTSDYSKYLDSRRAQDFVQWLLK([AEEA-AEEA-γGlu-C18 diacid])T | 0.022 nM
8 | HSQGTFTSDYSKYLDSKRAQEFVQWLK([AEEA-AEEA-γGlu-C18 diacid])NT-NH2 (N-terminus assumed; SMILES CC(C)C[C@H](NC(=O)[C@H](Cc1ccc(O)cc1)NC(=O)[C@H](CCCCN)NC(=O)[C@H](CO)NC(=O)[C@H](Cc1ccc(O)cc1)NC(=O)[C@H](CC(=O)O)NC(=O)[C@H](CO)NC(=O)[C@@H](NC(=O)[C@H](Cc1ccccc1)NC(=O)[C@@H](NC(=O)CNC(=O)[C@H](CCC(N)=O)NC(=O)[C@H](CO)NC(=O)[C@@H](N)Cc1c[nH]cn1)[C@@H](C)O)[C@@H](C)O)C(=O)N[C@@H](CC(=O)O)C(=O)N[C@@H](CO)C(=O)N[C@@H](CCCCN)C(=O)N[C@@H](CCCNC(=N)N)C(=O)N[C@@H](C)C(=O)N[C@@H](CCC(N)=O)C(=O)N[C@@H](CCC(=O)O)C(=O)N[C@@H](Cc1ccccc1)C(=O)N[C@H](C(=O)N[C@@H](CCC(N)=O)C(=O)N[C@@H](Cc1c[nH]c2ccccc12)C(=O)N[C@@H](CC(C)C)C(=O)N[C@@H](CCCCNC(=O)COCCOCCNC(=O)COCCOCCNC(=O)CC[C@H](NC(=O)CCCCCCCCCCCCCCCCC(=O)O)C(=O)O)C(=O)N[C@@H](CC(N)=O)C(=O)N[C@H](C(N)=O)[C@@H](C)O)C(C)C) | 0.007 nM
9 | HSQGTFTSDYSKYLDK([AEEA-AEEA-γGlu-C18 diacid])KKAQEFVQWLLNT | 0.02 nM
10 | HSQGTFTSDYSKYLDSKRAQEFVQK([AEEA-AEEA-γGlu-C18 diacid])LLNT-NH2 (N-terminus assumed; SMILES CC(C)C[C@H](NC(=O)[C@H](Cc1ccc(O)cc1)NC(=O)[C@H](CCCCN)NC(=O)[C@H](CO)NC(=O)[C@H](Cc1ccc(O)cc1)NC(=O)[C@H](CC(=O)O)NC(=O)[C@H](CO)NC(=O)[C@@H](NC(=O)[C@H](Cc1ccccc1)NC(=O)[C@@H](NC(=O)CNC(=O)[C@H](CCC(N)=O)NC(=O)[C@H](CO)NC(=O)[C@@H](N)Cc1c[nH]cn1)[C@@H](C)O)[C@@H](C)O)C(=O)N[C@@H](CC(=O)O)C(=O)N[C@@H](CO)C(=O)N[C@@H](CCCCN)C(=O)N[C@@H](CCCNC(=N)N)C(=O)N[C@@H](C)C(=O)N[C@@H](CCC(N)=O)C(=O)N[C@@H](CCC(=O)O)C(=O)N[C@@H](Cc1ccccc1)C(=O)N[C@H](C(=O)N[C@@H](CCC(N)=O)C(=O)N[C@@H](CCCCNC(=O)COCCOCCNC(=O)COCCOCCNC(=O)CC[C@H](NC(=O)CCCCCCCCCCCCCCCCC(=O)O)C(=O)O)C(=O)N[C@@H](CC(C)C)C(=O)N[C@@H](CC(C)C)C(=O)N[C@@H](CC(N)=O)C(=O)N[C@H](C(N)=O)[C@@H](C)O)C(C)C) [N^ε25 …] | 0.012 nM
11 | HSQGTFTSDYSKYLDSKRAQEFVQWLLNK([AEEA-AEEA-γGlu-C18 diacid])-NH2 (N-terminus assumed; SMILES CC(C)C[C@H](NC(=O)[C@H](CC(C)C)NC(=O)[C@H](Cc1c[nH]c2ccccc12)NC(=O)[C@H](CCC(N)=O)NC(=O)[C@@H](NC(=O)[C@H](Cc1ccccc1)NC(=O)[C@H](CCC(=O)O)NC(=O)[C@H](CCC(N)=O)NC(=O)[C@H](C)NC(=O)[C@H](CCCNC(=N)N)NC(=O)[C@H](CCCCN)NC(=O)[C@H](CO)NC(=O)[C@H](CC(=O)O)NC(=O)[C@H](CC(C)C)NC(=O)[C@H](Cc1ccc(O)cc1)NC(=O)[C@H](CCCCN)NC(=O)[C@H](CO)NC(=O)[C@H](Cc1ccc(O)cc1)NC(=O)[C@H](CC(=O)O)NC(=O)[C@H](CO)NC(=O)[C@@H](NC(=O)[C@H](Cc1ccccc1)NC(=O)[C@@H](NC(=O)CNC(=O)[C@H](CCC(N)=O)NC(=O)[C@H](CO)NC(=O)[C@@H](N)Cc1c[nH]cn1)[C@@H](C)O)[C@@H](C)O)C(C)C)C(=O)N[C@@H](CC(N)=O)C(=O)N[C@@H](CCCCNC(=O)COCCOCCNC(=O)COCCOCCNC(=O)CC[C@H](NC(=O)CCCCCCCCCCCCCCCCC(=O)O)C(=O)O)C(N)=O) [N^ε29 …] | 0.003 nM
12 | HSQGTFTSDYSKYLDSRRAQDFVK([AEEA-AEEA-γGlu-C18 diacid])[pY]LLNT | 0.171 nM
13 | HSQGTFTSDYSKYLDK([AEEA-AEEA-γGlu-C18 diacid])KRAQEFVQWLLNT | 0.02 nM

Target: T1, glucagon receptor
Assay: cell-based or functional assay
Remark: another data set of the same source

Row | Binder | Assay (I) Glucagon [EC50]
14 | HSQGTFTSDYSKYLDK([AEEA-AEEA-γGlu-γGlu-γGlu-C18 diacid])RRAQDFVQWLLNT | 0.081 nM
15 | HSQGTFTSDYSKYLDSRRAQDFVQK([γGlu-γGlu-AEEA-AEEA-γGlu-C18 diacid])LLNT | 0.988 nM
16 | HSQGTFTSDYSK([γGlu-γGlu-AEEA-AEEA-γGlu-C18 diacid])YLDSRRAQDFVQWLLNP | 1.58 nM
17 | HSQGTFTSDYSKYLDSRRAQDFVK([AEEA-AEEA-γGlu-γGlu-γGlu-C18 diacid])WLLST | 0.115 nM
18 | HSQGTFTSDYSKYLDK([γGlu-γGlu-AEEA-AEEA-γGlu-C18 diacid])RRAQEFVQRLLNT | 0.45 nM
19 | HSQGTFTSDYSKYLDSRRAEDFVK([γGlu-γGlu-AEEA-AEEA-γGlu-C18 diacid])WLLST | 0.307 nM
20 | HSQGTFTSDYSKYLDSRRAQDFVK([γGlu-γGlu-γGlu-C18 diacid])WLLST | 0.094 nM
21 | HSQGTFTSDYSKYLDSRRAQDFVQWLLK([γGlu-γGlu-AEEA-AEEA-γGlu-C18 diacid])TP | 0.128 nM
22 | HSQGTFTSDYSKYLDSRRAQDFVQWLLK([AEEA-AEEA-γGlu-γGlu-γGlu-C18 diacid])T | 0.116 nM
23 | HSQGTFTSDYSKYLDSRRAQDFVQWLLK([γGlu-γGlu-γGlu-C18 diacid])T | 0.141 nM
24 | HSQGTFTSDYSKYLDSRRAQDFVKWLLNTP (Lys 24: N-epsilon acylated with the substituent printed in the name) | 0.142 nM
25 | HSQGTFTSDYSKYLDSRRAQDFVHWLLNTK (C-terminal Lys (position 30): N-epsilon acylated with the substituent printed in the name) | 0.1 nM
26 | HSQGTFTSDYSKYLDSRRAQDFVK([γGlu-AEEA-AEEA-γGlu-γGlu-C18 diacid])WLLST | 0.106 nM
27 | HSQGTFTSDYSKYLDSRRAQDFVK([γGlu-γGlu-AEEA-AEEA-γGlu-C18 diacid])WLLNP | 0.156 nM
28 | HSQGTFTSDYSKYLDK([γGlu-AEEA-AEEA-γGlu-γGlu-C18 diacid])RRAQDFVQWLLNT | 0.122 nM
29 | HSQGTFTSDYSRYLDSRRAQDFVK([γGlu-γGlu-AEEA-AEEA-γGlu-C18 diacid])WLLNT | 0.127 nM
30 | HSQGTFTSDYSKYLDK([γGlu-γGlu-AEEA-AEEA-γGlu-C18 diacid])RRAQDFVQWLLNT | 0.105 nM
31 | HSQGTFTSDYSKYLDSRRAQDFVQWLLK([γGlu-AEEA-AEEA-γGlu-γGlu-C18 diacid])T | 0.093 nM
